In patent publication US7070788 (US Dept. of Health and Human Services, dated 2006):

Experiments:
[1] = target: human TSH receptor (CHO-JP09 cells) (human, UniProt P16473 21-764); experiment: cell-based or functional assay
[2] = target: hCG (LH/CG) receptor of MA-10 transformed murine Leydig cells (murine, UniProt P30730 27-700); experiment: cell-based or functional assay
Sequence of hCG (LH/CG) receptor of MA-10 transformed murine Leydig cells (P30730 27-700): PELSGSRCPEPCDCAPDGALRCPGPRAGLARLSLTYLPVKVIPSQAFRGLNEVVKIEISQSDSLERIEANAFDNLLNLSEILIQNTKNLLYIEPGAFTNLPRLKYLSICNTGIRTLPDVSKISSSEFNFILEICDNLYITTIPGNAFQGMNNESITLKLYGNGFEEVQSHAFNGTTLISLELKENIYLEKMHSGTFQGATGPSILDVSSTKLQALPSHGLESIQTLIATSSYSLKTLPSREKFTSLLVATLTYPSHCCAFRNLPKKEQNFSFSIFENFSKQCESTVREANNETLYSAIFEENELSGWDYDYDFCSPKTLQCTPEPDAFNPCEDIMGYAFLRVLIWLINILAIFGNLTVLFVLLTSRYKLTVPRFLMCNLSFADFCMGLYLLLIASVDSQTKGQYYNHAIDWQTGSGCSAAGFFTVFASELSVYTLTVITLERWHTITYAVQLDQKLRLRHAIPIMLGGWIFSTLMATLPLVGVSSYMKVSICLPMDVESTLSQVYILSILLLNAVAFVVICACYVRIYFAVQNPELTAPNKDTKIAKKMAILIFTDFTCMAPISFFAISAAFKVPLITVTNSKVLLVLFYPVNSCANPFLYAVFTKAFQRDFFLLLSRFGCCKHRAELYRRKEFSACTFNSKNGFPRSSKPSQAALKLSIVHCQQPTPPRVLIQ

Binder | cAMP stimulation in JP09 cells, EC50 [1] | cAMP stimulation in JP09 cells, Relative potency (WT = 1) [1] | Progesterone synthesis in MA10 cells, EC50 [2] | Progesterone synthesis in MA10 cells, Max (%) [2]
wild-type human thyroid stimulating hormone (ligand) chain 1: not shown chain 2: FCIPTEYTMHIERRECAYCLTINTTICAGYCMTRDINGKLFLPKYALSQDVCTYRDFIYRTVEIPGCPLHVAPYFSYPVALSCKCGKCNTDYSDCIHEAIKTNYCTKPQKSY | 6.7 ng/mL | 1 fold (WT = 1) |  | 
wild-type human chorionic gonadotropin (ligand) chain 1: not shown chain 2: SKEPLRPRCRPINATLAVEKEGCPVCITVNTTICAGYCPTMTRVLQGVLPALPQVVCNYRDVRFESIRLPGCPRGVNPVVSYAVALSCQCALCRRSTTDCGGPKDHPLTCDDPRFQDSSSSKAPPPSLPSPSRLPGPSDTPILPQ |  |  | 6.9 ng/mL | 100 % of WT-hCG
